Measurements as given in US7067277B1, “Chimeric G proteins and uses thereof” (H. Lundbeck A/S, priority 1999, dated 2006).

How the values were obtained:
Assay type in all cases: cell-based
h 5HT1B = h 5HT1B (Homo sapiens, UniProt P28222); test: Calcium mobilization (FLIPR, Fluo-3) in transfected COS-7 cells; conditions: h 5HT1B + chimera in COS-7; agonist 5HT, max 100 μM
Experimental: (§1) COS-7 cells were cultured in 225 cm^2 flasks in Dulbecco's Modified Eagle Medium (DMEM) with supplements (10% bovine calf serum, 4 mM glutamine, 100 units/ml penicillin and 100 μg/ml streptomycin) at 37° C., 5% CO2. Stock plates of COS-7 cells were trypsinized and split 1:6 every 3–4 days.
(§2) GPCR and chimeric G protein cDNAs were transiently transfected into COS-7 cells in 150 cm^2 flasks by the DEAE-dextran method (Cullen, 1987), using a total of 20 μg of DNA/˜7×10^6 cells. For evaluating the function of a single chimeric G protein, the standard cDNA transfection ratio was 1:1 (10 μg GPCR cDNA and 10 μg chimeric G protein cDNA). For evaluating the function of a mixture of chimeric G proteins, the standard cDNA transfection ratio was 8:1:1 (16 μg GPCR cDNA, 2 μg Gαq/z cDNA, 2 μg Gαq/s cDNA).
(§3) Twenty four hours after transient transfection, COS-7 cells were seeded into 96-well black wall microtiter plates coated with poly-D-lysine for assay the following day. Just prior to assay, culture medium was aspirated and cells were dye-loaded with 4 μM Fluo-3/0.01% pluronic acid in assay buffer composed of Hank's Balanced Salt Solution (138 mM NaCl, 5 mM KCl, 1.3 mM CaCl2, 0.5 mM MgCl2, 0.4 mM MgSO4, 0.3 mM KH2PO4, 0.3 mM Na2HPO4, 5.6 mM glucose) plus 20 mM HEPES (pH 7.4), 0.1% BSA and 2.5 mM probenicid (100 μl/well) for 1 hour in 5% CO2 at 37° C. After excess dye was discarded, cells were washed in assay buffer and layered with a final volume equal to 100 μl/well. Basal fluorescence was monitored in a fluorometric imaging plate reader (FLIPR™, Molecular Devices) with an excitation wavelength of 488 nm and an emission range of 500 to 560 nm. Laser excitation energy was adjusted so that basal fluorescence readings were approximately 10,000 relative fluorescent units. Cells were stimulated with agonists diluted in assay buffer (50 μl), and relative fluorescent units were measured at defined intervals (exposure=0.4 sec) over a 3 min period at room temperature. Maximum change in fluorescence was calculated for each well. Concentration-response curves derived from the maximum change in fluorescence were analyzed by nonlinear regression (Hill equation).

m 5HT5A = m 5HT5A (Mus musculus, UniProt P30966); test: as above; conditions: m 5HT5A + chimera in COS-7; agonist 5HT, max 100 μM
Sequence of m 5HT5A (P30966 whole entry): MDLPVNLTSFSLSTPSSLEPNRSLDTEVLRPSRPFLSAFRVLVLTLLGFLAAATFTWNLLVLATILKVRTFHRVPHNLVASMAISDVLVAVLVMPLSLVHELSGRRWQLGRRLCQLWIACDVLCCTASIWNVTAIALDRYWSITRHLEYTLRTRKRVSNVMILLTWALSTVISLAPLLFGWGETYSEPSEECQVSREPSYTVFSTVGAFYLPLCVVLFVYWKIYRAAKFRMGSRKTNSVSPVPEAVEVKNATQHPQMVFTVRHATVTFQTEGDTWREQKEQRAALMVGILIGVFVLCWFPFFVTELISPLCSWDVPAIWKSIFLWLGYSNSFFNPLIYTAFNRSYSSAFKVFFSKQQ
Experimental: as §1, §2, §3

h D2 = target: T1, h D2 (Homo sapiens, UniProt P14416); test: as above; conditions: h D2 + chimera in COS-7; agonist DA, max 100 μM
T1 construct: expressed in transfected cells; host or cells: COS-7
T1 sequence (P14416 whole entry): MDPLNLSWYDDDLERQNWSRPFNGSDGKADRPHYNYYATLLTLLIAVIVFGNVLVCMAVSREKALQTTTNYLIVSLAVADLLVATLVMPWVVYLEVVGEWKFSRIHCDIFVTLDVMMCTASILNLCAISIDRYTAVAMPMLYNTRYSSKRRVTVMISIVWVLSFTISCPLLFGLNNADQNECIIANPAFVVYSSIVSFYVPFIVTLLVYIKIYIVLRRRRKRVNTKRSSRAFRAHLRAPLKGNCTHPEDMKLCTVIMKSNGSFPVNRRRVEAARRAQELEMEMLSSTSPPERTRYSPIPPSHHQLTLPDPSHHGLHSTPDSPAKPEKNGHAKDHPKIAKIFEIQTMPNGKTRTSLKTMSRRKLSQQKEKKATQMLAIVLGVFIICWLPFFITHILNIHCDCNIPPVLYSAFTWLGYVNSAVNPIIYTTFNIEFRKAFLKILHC
Experimental: as §1, §2, §3

[1] = system: panel of 36 different GPCRs, including Gαi/i-, Gαs-, and Gαq-coupling receptors; test: Detection rate in COS-7 calcium mobilization over a GPCR panel; conditions: COS-7, single chimera co-transfected with each GPCR
Experimental: as §1
as §2, with “For evaluating the function of a mixture of chimeric G proteins, the standard cDNA transfection ratio was 8:1:1 (16 μg GPCR cDNA, 2 μg Gαq/z cDNA, 2 μg Gαq/s cDNA).” left out
Twenty four hours after transient transfection, COS-7 cells were seeded into 96-well black wall microtiter plates coated with poly-D-lysine for assay the following day. […] Basal fluorescence was monitored in a fluorometric imaging plate reader (FLIPR™, Molecular Devices) with an excitation wavelength of 488 nm and an emission range of 500 to 560 nm. Laser excitation energy was adjusted so that basal fluorescence readings were approximately 10,000 relative fluorescent units. Cells were stimulated with agonists diluted in assay buffer (50 μl), and relative fluorescent units were measured at defined intervals (exposure=0.4 sec) over a 3 min period at room temperature. Maximum change in fluorescence was calculated for each well. […]

Rat Y1 = target: T2, Rat Y1 (Rattus norvegicus, UniProt P21555); test: Cl- current recording in Xenopus oocytes expressing GPCR and chimeric G protein; conditions: Xenopus oocytes expressing Rat Y1 and chimera; mean ± s.e.m
T2 construct: linearized plasmids or PCR products containing the complete coding region of the genes; expressed in transfected cells; host or cells: Xenopus laevis oocytes (receptor cRNA injected)
T2 sequence (P21555 1-382): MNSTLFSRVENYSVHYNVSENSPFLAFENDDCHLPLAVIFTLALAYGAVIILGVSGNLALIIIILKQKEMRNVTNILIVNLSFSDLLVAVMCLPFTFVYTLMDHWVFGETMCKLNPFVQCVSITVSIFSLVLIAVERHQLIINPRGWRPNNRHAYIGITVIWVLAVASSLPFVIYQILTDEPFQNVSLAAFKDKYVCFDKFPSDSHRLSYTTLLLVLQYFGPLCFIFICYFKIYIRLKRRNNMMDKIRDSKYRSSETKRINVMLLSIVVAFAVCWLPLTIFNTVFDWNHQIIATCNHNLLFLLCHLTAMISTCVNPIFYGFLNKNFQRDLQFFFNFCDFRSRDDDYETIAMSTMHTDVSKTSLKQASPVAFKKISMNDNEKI
Experimental: (§4) Oocytes were harvested from Xenopus laevis and injected with mRNA transcripts as previously described (Quick and Lester, 1994; Smith et al., 1997). Receptor and chimeric G protein α subunit RNA transcripts were synthesized using the T7 polymerase (“Message Machine,” Ambion) from linearized plasmids or PCR products containing the complete coding region of the genes. Oocytes were injected with 5–25 ng synthetic receptor RNA and incubated for 3–8 days at 17 degrees. Three to eight hours prior to recording, oocytes were injected with 500 pg chimeric Gα subunit mRNA. Dual electrode voltage clamp (Axon Instruments Inc.) was performed using 3 M KCl-filled glass microelectrodes having resistances of 1–2 MOhm. Unless otherwise specified, oocytes were voltage clamped at a holding potential of −80 mV. During recordings, oocytes were bathed in continuously flowing (1–3 ml/min) medium containing 96 mM NaCl, 2 mM KCl, 1.8 mM CaCl2, 1 mM MgCl2, and 5 mM HEPES, pH 7.5 (ND96). Drugs were applied by local perfusion from a 10 μl glass capillary tube fixed at a distance of 0.5 mm from the oocyte. Experiments were carried out at room temperature. All values are expressed as mean±standard error of the mean.

Human NPFF1 = target: T3, Human NPFF1 (Homo sapiens, UniProt Q9GZQ6); test: as above; conditions: Xenopus oocytes expressing Human NPFF1 and chimera, 1 μM NPFF, mean ± s.e.m
T3 construct: linearized plasmids or PCR products containing the complete coding region of the genes; expressed in transfected cells; host or cells: Xenopus laevis oocytes (receptor cRNA injected)
T3 sequence (Q9GZQ6 whole entry): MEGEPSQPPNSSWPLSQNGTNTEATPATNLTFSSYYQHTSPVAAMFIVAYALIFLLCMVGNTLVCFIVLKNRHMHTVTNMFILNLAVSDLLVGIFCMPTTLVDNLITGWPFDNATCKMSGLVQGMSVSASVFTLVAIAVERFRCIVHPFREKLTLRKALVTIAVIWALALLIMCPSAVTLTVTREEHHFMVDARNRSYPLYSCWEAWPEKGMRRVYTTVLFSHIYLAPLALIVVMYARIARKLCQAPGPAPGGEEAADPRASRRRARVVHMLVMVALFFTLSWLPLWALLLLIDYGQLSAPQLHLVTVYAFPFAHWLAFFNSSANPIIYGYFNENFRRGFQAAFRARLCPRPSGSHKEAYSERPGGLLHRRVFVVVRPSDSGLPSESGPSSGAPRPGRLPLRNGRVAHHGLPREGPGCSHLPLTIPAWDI
Experimental: as §4

Rabbit 5HT1D = target: T4, Rabbit 5HT1D (Oryctolagus cuniculus, UniProt P49145); test: as above; conditions: Xenopus oocytes expressing Rabbit 5HT1D and chimera; mean ± s.e.m
T4 construct: linearized plasmids or PCR products containing the complete coding region of the genes; expressed in transfected cells; host or cells: Xenopus laevis oocytes (receptor cRNA injected)
T4 sequence (P49145 whole entry): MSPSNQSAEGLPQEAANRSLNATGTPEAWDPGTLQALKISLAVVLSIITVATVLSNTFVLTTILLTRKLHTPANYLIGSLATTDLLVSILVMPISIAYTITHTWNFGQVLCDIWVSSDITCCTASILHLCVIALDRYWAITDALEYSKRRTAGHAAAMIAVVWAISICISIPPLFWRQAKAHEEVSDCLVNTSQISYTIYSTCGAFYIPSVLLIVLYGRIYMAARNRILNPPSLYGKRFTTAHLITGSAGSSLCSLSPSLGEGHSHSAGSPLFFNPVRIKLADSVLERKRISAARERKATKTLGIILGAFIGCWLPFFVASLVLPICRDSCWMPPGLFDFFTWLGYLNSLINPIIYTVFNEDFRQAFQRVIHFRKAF
Experimental: as §4

Sequence of h 5HT1B (P28222 whole entry): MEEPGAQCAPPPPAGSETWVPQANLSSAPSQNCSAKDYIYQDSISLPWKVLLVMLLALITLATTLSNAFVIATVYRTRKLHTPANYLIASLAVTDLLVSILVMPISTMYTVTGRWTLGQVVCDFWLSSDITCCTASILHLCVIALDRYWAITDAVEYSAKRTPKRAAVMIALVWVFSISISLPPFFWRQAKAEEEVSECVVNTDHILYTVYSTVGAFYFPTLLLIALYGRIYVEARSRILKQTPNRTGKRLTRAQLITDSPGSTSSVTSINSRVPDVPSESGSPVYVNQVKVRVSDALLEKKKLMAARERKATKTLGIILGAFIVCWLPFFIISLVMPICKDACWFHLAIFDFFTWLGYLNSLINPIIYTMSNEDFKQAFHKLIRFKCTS

B1: cGαq/z5: chimeric Gα subunit: C-terminal final 5 amino acids of C. elegans Gαq replaced with those of hGαz (SEQ ID NO: 1) (protein)
chain: MACCLSEEAREQKRINQEIEKQLQRDKRNARRELKLLLLGTGESGKSTFIKQMRIIHGQGYSEEDKRAHIRLVYQNVFMAIQSMIRAMDTLDIKFGNESEELQEKAAVVREVDFESVTSFEEPYVSYIKELWEDSGIQECYDRRREYQLTDSAKYYLSDLRRLAVPDYLPTEQDILRVRVPTTGIIEYPFDLEQIIFRMVDVGGQRSERRKWIHCFENVTSIMFLVALSEYDQVLVECDNENRMEESKALFRTIITYPWFTNSSVILFLNKKDLLEEKILYSHLADYFPEYDGPPRDPIAAREFILKMFVDLNPDADKIIYSHFTCATDTENIRFVFAAVKDTILQHNLKYIGLC
modifications: C. elegans
MAXIMAL SIGNAL (FLUORESCENCE UNITS) (h 5HT1B): 929 fluorescence units | MAXIMAL SIGNAL (FLUORESCENCE UNITS) (m 5HT5A): 351 fluorescence units | MAXIMAL SIGNAL (FLUORESCENCE UNITS) (h D2): 7615 fluorescence units | receptors generating positive signals (>500 fluorescence units) / receptors tested [1]: 28/36 | Response amplitudes (nA) in oocytes (Rat Y1): 1549 ± 168 nA | Response amplitudes (nA) in oocytes (Human NPFF1): 1258±159 nA | Response amplitudes (nA) in oocytes (Human NPFF1; listed as CGαq/z5): 1258 ± 159 nA | Response amplitudes (nA) in oocytes (Rabbit 5HT1D): 150 ± 105 nA

B2: cGαq/z9: C. elegans Gαq with Gαz portion of the C-terminal tail extended to 9 amino acids (SEQ ID NO: 2) (protein)
chain: MACCLSEEAREQKRINQEIEKQLQRDKRNARRELKLLLLGTGESGKSTFIKQMRIIHGQGYSEEDKRAHIRLVYQNVFMAIQSMIRAMDTLDIKFGNESEELQEKAAVVREVDFESVTSFEEPYVSYIKELWEDSGIQECYDRRREYQLTDSAKYYLSDLRRLAVPDYLPTEQDILRVRVPTTGIIEYPFDLEQIIFRMVDVGGQRSERRKWIHCFENVTSIMFLVALSEYDQVLVECDNENRMEESKALFRTIITYPWFTNSSVILFLNKKDLLEEKILYSHLADYFPEYDGPPRDPIAAREFILKMFVDLNPDADKIIYSHFTCATDTENIRFVFAAVKDTILQNNLKYIGLC
modifications: C. elegans
MAXIMAL SIGNAL (FLUORESCENCE UNITS) (h 5HT1B): 1217 fluorescence units | MAXIMAL SIGNAL (FLUORESCENCE UNITS) (m 5HT5A): 270 fluorescence units | MAXIMAL SIGNAL (FLUORESCENCE UNITS) (h D2): 4305 fluorescence units | receptors generating positive signals (>500 fluorescence units) / receptors tested [1]: 29/36 | Response amplitudes (nA) in oocytes (Rat Y1): 300 ± 177 nA | Response amplitudes (nA) in oocytes (Human NPFF1): 1449 ± 398 nA | Response amplitudes (nA) in oocytes (Rabbit 5HT1D): 34 ± 12 nA
